This is an account of results in patent publication US7795221B2, “Linear natriuretic peptide constructs” (Palatin Technologies, Inc., priority 2006, dated 2010).

Square brackets hold non-standard residues; d marks the D form. Ends that are not written are not given here. Peptide text beside a SMILES is read from it. * marks the point of attachment. Piperazin2one(3S-Bu,6R-CO) = CCCC[C@@H]1NC[C@H](C(=O)*)NC1=O; X1 = N=C(N)NCCC[C@H]1C(=O)N[C@@H](C(N)=O)CN1*; keto‑piperazine surrogate = not defined here; Nle = CCCC[C@H](N)C(=O)O

On the set-up of data set [1]: species or system Sprague-Dawley rats. The conditions noted are these: rat, in vivo, iv, 2 mg/kg. As for the experimental part: . […] The total run time was 6 minutes.
For data set [2], the target named is T1, human natriuretic peptide receptor A (human, UniProt P16066 33-1061).
T1 construct: whole, on cells; The cGMP assay used whole HEK-hNPRA cells; also called NPRA; hNPRA
T1 sequence (looked up): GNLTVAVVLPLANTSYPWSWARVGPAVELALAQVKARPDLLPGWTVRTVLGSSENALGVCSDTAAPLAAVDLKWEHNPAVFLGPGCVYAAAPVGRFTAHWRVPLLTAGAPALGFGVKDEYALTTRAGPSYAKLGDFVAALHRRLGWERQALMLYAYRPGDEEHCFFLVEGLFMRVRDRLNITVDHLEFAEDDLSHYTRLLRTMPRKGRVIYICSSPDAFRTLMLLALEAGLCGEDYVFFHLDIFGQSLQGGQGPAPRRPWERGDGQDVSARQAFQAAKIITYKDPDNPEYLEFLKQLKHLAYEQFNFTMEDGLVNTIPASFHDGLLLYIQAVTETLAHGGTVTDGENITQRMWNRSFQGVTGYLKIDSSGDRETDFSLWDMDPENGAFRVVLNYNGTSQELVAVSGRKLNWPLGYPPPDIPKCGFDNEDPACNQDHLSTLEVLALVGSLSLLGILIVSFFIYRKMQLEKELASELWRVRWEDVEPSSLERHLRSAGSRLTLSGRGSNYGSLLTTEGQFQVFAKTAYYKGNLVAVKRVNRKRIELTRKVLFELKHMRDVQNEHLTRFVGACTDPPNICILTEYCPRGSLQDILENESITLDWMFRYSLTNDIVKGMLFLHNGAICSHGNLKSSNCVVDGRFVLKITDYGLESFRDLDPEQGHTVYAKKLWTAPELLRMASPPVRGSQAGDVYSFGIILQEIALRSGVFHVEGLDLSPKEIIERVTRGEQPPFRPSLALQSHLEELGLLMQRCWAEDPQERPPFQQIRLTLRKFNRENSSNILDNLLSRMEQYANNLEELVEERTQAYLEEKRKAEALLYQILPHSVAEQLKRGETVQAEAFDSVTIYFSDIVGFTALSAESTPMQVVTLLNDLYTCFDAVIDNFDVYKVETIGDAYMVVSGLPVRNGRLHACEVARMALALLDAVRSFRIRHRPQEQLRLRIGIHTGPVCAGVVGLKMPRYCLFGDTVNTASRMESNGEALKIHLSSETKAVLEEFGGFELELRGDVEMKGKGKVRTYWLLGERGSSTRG
The data set is described as follows: competitive inhibition of [125I]-ANP binding to HEK-hNPRA membrane homogenates. As for the experimental part: Competitive binding assay. A competitive inhibition binding assay was performed using crude membrane homogenates prepared from HEK-hNPRA cells. To prepare membrane homogenates, cells were rinsed with phosphate-buffered saline and incubated for 15 minutes at 4° C. in hypotonic lysis buffer (10 mM Tris, pH 7.4+5 mM EDTA). Cells were transferred from plates to polypropylene tubes and homogenized. Homogenates were centrifuged at 25,000×g for 20 minutes. Pellets were resuspended in buffer consisting of 50 mM Tris (pH 7.4) and 1 mM EDTA, homogenized and centrifuged at 25,000×g for 20 minutes. Pellets were resuspended in buffer consisting of 100 mM Tris (pH 7.4) and 10 mM MgCl_2 and stored at −80° C. until needed. On the day of an assay, homogenates were thawed and homogenized. […] Assays were stopped by addition of cold wash buffer (phosphate-buffered saline) followed by filtration using a vacuum manifold. Bound radioactivity was determined using a gamma counter. […] Data were analyzed using GraphPad Prism® curve-fitting software.

Data set [3] deals with T1, human natriuretic peptide receptor A. The data set is described as follows: cell-based or functional assay.

With `CCCC[C@@H]1NC[C@H](C(=O)N[C@@H](C)C(=O)N[C@@H](Cc2c[nH]cn2)C(=O)N[C@@H](Cc2ccccc2)C(=O)NCC(=O)NCC(=O)N[C@@H](CCCNC(=N)N)C(=O)N[C@@H](CCCC)C(=O)N[C@@H](CC(=O)O)C(=O)N[C@@H](CCCNC(=N)N)C(=O)N[C@H](C(=O)N[C@@H](CO)C(=O)N[C@@H](C)C(=O)N[C@@H](Cc2ccc(O)cc2)C(=O)N2C[C@H](C(N)=O)NC(=O)[C@@H]2CCCNC(=N)N)[C@@H](C)CC)NC1=O` [Construct 1-30] ({Piperazin2one(3S-Bu,6R-CO)}-AHFGGR[Nle]DRISAY-X1), in data set [1], the AUC (commonly the area under the concentration-time curve, a measure of exposure) was determined as 0.139 µM·h; the Vd (as a rule, the apparent volume that relates the amount in the body to the concentration in plasma or blood) was 0.6 L/kg; the clearance (in general, the rate of elimination divided by the concentration) stood at 131 mL/min/kg; the half-life (in general, how long it takes for the measured level to halve) was 6 min.

Turning to [keto‑piperazine surrogate]AHFGGR[Nle]DRISAY[keto‑piperazine surrogate] (reading uncertain; also: further groups not given here, Linear synthetic construct) [Construct 1-49], the affinity in data set [2] corresponds to a Ki of 0.2 nM. In addition, the “EC50 (accumulation of intracellular cGMP)” value (shortened to “EC50”) in data set [3] is approximately 12 nM.

Turning to [keto‑piperazine surrogate]AHFGGR[Nle]DRISAY[keto‑piperazine surrogate] (reading uncertain; also: further groups not given here, Linear synthetic construct) [Construct 1-30], affinity in data set [2] was put at a Ki of 8.7 nM. Also, the “EC50” value in data set [3] was 80.5 nM.

For [keto‑piperazine surrogate]AHFGGR[Nle]DRISAYR (reading uncertain; also: further groups not given here, Linear synthetic construct) [Construct 1-9], the inhibition constant (Ki) (in general, the equilibrium dissociation constant of an inhibitor or competing ligand from its target) in data set [2] was determined as 14.5 nM. Moreover, in data set [3], the “EC50” value was 550 nM.

B1: Construct 1-16 (peptide)
peptide: [Nle]AHFGGR[Nle]DRISAY[keto‑piperazine surrogate]
modifications: reading uncertain; also: further groups not given here
notes: Linear synthetic construct modelled on mini-ANP
Turning to B1, the affinity in data set [2] corresponds to a Ki of 88.5 nM. Also, the “EC50” value in data set [3] was found to be 340 nM.
